The target of assay [1] is CTR-C-V_(1–154)/RAMP1 (human) (UniProt O60894).
Assay [2] deals with CTR-C-V_(1–154)/RAMP1-C-V_(155–238) (human) (UniProt O60894).
The target in assay [3] is CTR/N-V_(155–238)-RAMP1 (human) (UniProt O60894).
The target in assay [4] is CTR/RAMP1-C-V_(155–238) (human) (UniProt O60894).
Assay [5] has as its target N-V_(1–154)-CTR/N-V_(155–238)-RAMP1 (human) (UniProt O60894).
Assay [6] deals with N-V_(1–154)-CTR/RAMP1 (human) (UniProt O60894).
Assay [7] has as its target WT CTR (human).
For assay [8], the target named is WT CTR/RAMP1 (AMY1 receptor) (human) (UniProt O60894).
Assay [9] concerns the target CTR-C-V_(1–154) (human).
Assay [10] has as its target N-V_(1–154)-CTR (human).

No end group written: not given here.

WT CTR (human), sequence (P30988 25-474): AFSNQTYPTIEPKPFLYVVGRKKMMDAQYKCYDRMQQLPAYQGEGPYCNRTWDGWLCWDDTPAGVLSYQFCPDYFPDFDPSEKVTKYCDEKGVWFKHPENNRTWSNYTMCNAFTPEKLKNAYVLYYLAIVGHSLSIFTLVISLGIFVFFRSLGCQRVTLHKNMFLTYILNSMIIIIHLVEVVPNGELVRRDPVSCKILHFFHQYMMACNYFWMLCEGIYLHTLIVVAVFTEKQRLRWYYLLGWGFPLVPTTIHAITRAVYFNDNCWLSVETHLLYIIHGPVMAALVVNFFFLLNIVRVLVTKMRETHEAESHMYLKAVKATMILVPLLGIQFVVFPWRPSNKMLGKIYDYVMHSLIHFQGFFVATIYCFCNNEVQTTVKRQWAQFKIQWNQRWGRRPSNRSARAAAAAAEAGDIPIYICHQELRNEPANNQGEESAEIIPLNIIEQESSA

For the molecule “Human αCGRP (from UniProt P06881 83-119) (peptide)”, the Emax of h-αCGRP-stimulated cAMP production, Cos7 cells, percent of the matched WT curve in [1] is 81.2 % of WT; in assay [2], 71.5 % of WT; in [3], 74.9 % of WT; in [4], 83.5 % of WT; in [5] it was 77.3 % of WT; in [6], 74 % of WT. Besides, the pEC50 of h-αCGRP-stimulated cAMP production, Cos7 cells, 15 min in assay [1] worked out at 8.41 pEC50; in [2], 7.52 pEC50; in assay [3] it was 8.16 pEC50; in assay [4] it was 8.62 pEC50; in assay [5], 8.83 pEC50; in assay [6], 8.92 pEC50. In assay [7], this molecule yielded a pEC50 of h-αCGRP-stimulated cAMP production, Cos7 cells, 15 min, CTR without RAMP1 of 6.63 pEC50. The molecule also returned a pEC50 of h-αCGRP-stimulated cAMP production, Cos7 cells, 15 min (WT control of the N-terminal series) in [8] of 9.1 pEC50.
In the case of CGNLSTCMLGTYTQDFNKFHTFPQTAIGVGAP (ends and bridges not checked; cysteine pairing not given here) [Human calcitonin], the fold loss of calcitonin potency (cAMP production) against WT CTR, Cos7 cells in assay [9] was 3 fold; in assay [10], 10 fold.

The values above are taken from PMC11499381.
